The target in experiment [1] is NbHUB1-GFP (Nicotiana benthamiana). The experiment can be described thus: FRET or BRET; FRET by acceptor photobleaching in epidermal cells of N. benthamiana leaves; EGFP/GFP fusion as donor, DsRed fusion as acceptor; FRET efficiency (EF) in percent; without ChiLCV. A general note: Bioluminescence resonance energy transfer reports proximity on the nanometre scale.
Experiment [2] concerns the target NbUBC2-EGFP (Nicotiana benthamiana). The experiment is described as above.
Experiment [3] has as its target NbUBC2-DsRed (Nicotiana benthamiana). The description is as above.
Experiment [4] has as its target Rep-DsRed (Chilli leaf curl virus). The experiment can be described thus: FRET or BRET; FRET by acceptor photobleaching in epidermal cells of N. benthamiana leaves, in the presence of ChiLCV, Rep proteins organised as punctate bodies.

Take Rep_(1-120)-DsRed (domain or fragment): the figures for the FRET efficiency in experiment [1] and in experiment [2] were 45% and 38%, respectively. On the same counts, the results for Rep_(1-180)-DsRed (domain or fragment) are 44% and 40.5%. The substance Rep-DsRed (natural protein) registered an FRET efficiency in experiment [1] of 58.7%. Same read-out and setting: to “Rep_(181-361)-DsRed (domain or fragment)” belongs 58.5%. In turn, Rep-EGFP (natural protein) gave an FRET efficiency in experiment [3] of 43.7%. The FRET efficiency in the presence of ChiLCV in experiment [4] amounted to 68.7%.

The values are drawn from publication PMC5597257.
